Data as given in the DeepSol protein solubility set.

Experiment: soluble on expression in E. coli; label from the status in PepcDB or PDB records

Question: Which “soluble on expression in E. coli” value does the source give for “MTIDTTNESDNSPTNSPGLEASARTFSLNASKMVRITDDYADEVFIEQNDVVIEKPRMDPLHVRKLMETWRKAARRARTNYIDPWDEFNIHEYPVQRAKRYRYSAIRKQWTEDIVDVRLHPDSFARGAMRECYRLKKCSKHGTSQDWSSNYVAKRYICQVDRRVLFDDVRLQMDAKLWAEEYNRYNPPKKIDIVQMCVIEMIDVKGSPLYHLEHFIEGKYIKYNSNSGFVSNAARLTPQAFSHFTFERSGHQMMVVDIQGVGDLYTDPQIHTVVGTDYGDGNLGTRGMALFFHSHRCNDICETMDLSNFELSPPEIEATEVAMEVAAKQKKSCIVPPTVFEARRNRISSECVHVEHGISMDQLRKRKTLNQSSTDLSAKSHNEDCVCPECIPVVEQLCEPCSEDEEDEEEDYPRSEKSGNSQKSRRSRMSISTRSSGDESASRPRKCGFVDLNSLRQRHDSFRSSVGTYSMNSSRQTRDTEKDEFWKVLRKQSVPANILSLQLQQMAANLENDEDVPQVTGHQFSVLGQIHIDLSRYHELGRFVEVDSEHKEMLEGSENDARVPIKYDKQSAIFHLDIARKCGILEAVLTSAHIVLGLPHELLKEVTVDDLFPNGFGEQENGIRDLEEFGSDLMEIAAEMGDKGAMLYMAHAYETGQHLGPNRRTDYKKSIDWYQRVVGFQEEEELDSDCGKTTFSSFAPLTRHEILAKMAEMYKEGGYGLNQDFERAYGLFNEAAEAAMEAMNGKLANKYYEKAEMCGE” here?
Answer: The value was “not soluble”.

Question: For “MTIEKEIEGLIHKTNKDLLNENANKDSRVFPTQRDLMAGIVSKHIAKNMVPSFIMKAHESGIIHVHDIDYSPALPFTNCCLVDLKGMLENGFKLGNAQIETPKSIGVATAIMAQITAQVASHQYGGTTFANVDKVLSPYVKRTYAKHIEDAEKWQIADALNYAQSKTEKDVYDAFQAYEYEVNTLFSSNGQTPFVTITFGTGTDWTERMIQKAILKNRIKGLGRDGITPIFPKLVMFVEEGVNLYKDDPNYDIKQLALECASKRMYPDIISAKNNKAITGSSVPVSPMGCRSFLSVWKDSTGNEILDGRNNLGVVTLNLPRIALDSYIGTQFNEQKFVELFNERMDLCFEALMCRISSLKGVKATVAPILYQEGAFGVRLKPDDDIIELFKNGRSSVSLGYIGIHELNILVGRDIGREILTKMNAHLKQWTERTGFAFSLYSTPAENLCYRFCKLDTEKYGSVKDVTDKGWYTNSFHVSVEENITPFEKISREAPYHFIATGGHISYVELPDMKNNLKGLEAVWDYAAQHLDYFGVNMPVDKCFTCGSTHEMTPTENGFVCSICGETDPKKMNTIRRTCAYLGNPNERGFNLGKNKEIMHRVKHQ”, which “soluble on expression in E. coli” value is on record?
Answer: The value was “soluble”.

Question: Which “soluble on expression in E. coli” value does the source give for “MTIKTLQYDDFMLYRERIRDLLVQIYDINFDVSHDYSINESNKKINLLDEYIKTNQAVLIGAVDGEKLVGFIWIYKHEYFGETRMHINQIIVDKEYKRKGIGKRLLEEAEKKAKELGIKVIDLFVSEKNAEAVNFYEKTGFVTERRYLKKILLEHHHHHH” here?
Answer: Its value is “not soluble”.

Question: With “MTKAVVIGGGLAGLATTALLLREGYEVHLVEQNEHLGGRAGTFELDGFRWDTGPSWYLMPDAMSHFFKLCGTSIDDHLDLVPLEPAYRVIDDHGEFIDVTSDIDAMAELFESREPGAGAKLRTYIDSATQVYNLAIDGFLYTNFTNFIPYLSPGMLRLLPKLLASLSTSLKVKVNTQFRDTKLRQILSYPAVFLSSDPSHTPALYHLMSHTDLVQGVSYPRGGFTAFIKALISLIDDAVLHLGTPVSAITTQGRNATGVQVGSEFIEADIVISCADQHHTETQLLPASLCAKPETSWKNKQPGLSTVLVLAGVKGEHTLLFPPTGTKISAKFSTAPPQNSRLQNPSRSPRPPQQIPMPHPKATRTSSSWSQYPPMSPLVTGPLTEKNLTWWAGSQLEHHHHHH” as the sequence, how does the “soluble on expression in E. coli” value read?
Answer: The value was “not soluble”.

Question: With “MTKEKLSWLQQKMLNKSIKKKCQNFRELGYSSINEEDLLTYLLTYRWKKQTHLSVKDCRKDIHKVKPNEFFDYQQLLAQTSKNPLRDWHDIEDLF” as the sequence, how does the “soluble on expression in E. coli” value read?
Answer: The value was “not soluble”.

Question: With “MTKHKERVMYYGKGDVFAYRTYLKPLTGVRTIPESPFSGRDHILFGVNVKISVGGTKLLTSFTKGDNSLVVATDSMKNFIQKHLASYTGTTIEGFLEYVATSFLKKYSHIEKISLIGEEIPFETTFAVKNGNRAASELVFKKSRNEYATAYLNMVRNEDNTLNITEQQSGLAGLQLIKVSGNSFVGFIRDEYTTLPEDSNRPLFVYLNIKWKYKNTEDSFGTNPENYVAAEQIRDIATSVFHETETLSIQHLIYLIGRRILERFPQLQEVYFESQNHTWDKIVEEIPESEGKVYTEPRPPYGFQCFTVTQEDLPHENIL” as the sequence, how does the “soluble on expression in E. coli” value read?
Answer: The value was “soluble”.

Question: Which “soluble on expression in E. coli” value does the source give for “MTKISERNIKVARKNVCKNIQRLNKKLSNKIKNEEAALPDIIAGTHGTPIEKLLTLYKLSDPIFTAIRPFTACRYGCSACCHYKVDLLPIEAELIAISLGQAPLPLPTTFQNGHGKRCPFLSKNGQCNIYSIRPMACRRHFMFTNSDYWCNPVHSEDIKIKMLGFSGIIEAYINIANQDGRYSPENIRDIRDYFTAGIDADVNARELDSELEHHHHHH” here?
Answer: Its value is “not soluble”.

Question: For “MTKKCPKCGNEFDAELTTCPTCGYSLTDTTVDKEEAETTSTNIDFETQENEEHEDQLNENIEWSELKDMSLGHVMELFGESPEEESNDDKKEESTEDNLIVSDSEDVSGLEASLQEGASEETHDSVEESIPATEETPTHSTEEKLATDEAVNLEETTEETTEETTTVEAETAEVSETVKSEEEALTEISGTEVISTTSEEEIFSQPPIEDQDVTPNETLQAYIQAHRADTEMSENPSEETAETQELENSGEAVLTQAETPTESISDSEEGLTSAASLEAPSDADATEGKVSDSGVIPPMNETGNAQPAPAPKKPSKKVVFVALAVVLLAGGSAWAYHDQTQKAAAQEAAALTKKTDTLKDELAAFYTTKEQVFIKPDMVTVSPEKLSKQVAEIKDSEEYSQLNKQIQTLKEKQQTIQQINQLFEAPIVNGNELKPAILAADQPISVKKLTGNDPFDQLMNQAIDQANQQYNQLQKAKKAVEVIYKDGKTTNQLNRDTYQAAKAEVDKVTSDKLKKELVKQVTTADQALTKVEEEQKRIAEEQAAAEQAKQAEEQAKQAAAAKKEDAKKEETAKTEANGYTAPNSDGVYTSPLYAPDAADIADSSNPAWTWAPGVKEKVLDTVIARGYVVPGGYSLEPAKIVNGEGYYNLYATNNQSKLLEGTTEKNVHMYLVTINAKTGWFKGNASRNAGQ”, which “soluble on expression in E. coli” value is on record?
Answer: The value was “not soluble”.

Question: With “MTKKVAIILANEFEDIEYSSPKEALENAGFNTVVIGDTANSEVVGKHGEKVTVDVGIAEAKPEDYDALLIPGGFSPDHLRGDTEGRYGTFAKYFTKNDVPTFAICHGPQILIDTDDLKGRTLTAVLNVRKDLSNAGAHVVDESVVVDNNIVTSRVPDDLDDFNREIVKQLQ” as the sequence, how does the “soluble on expression in E. coli” value read?
Answer: Its value is “not soluble”.

Question: With “MTKNEIRKYILHKMKNFNKAEKRKADTWLRNQFFATEEYKEANAIALVLSFNHEVDTFSIIEQALMDHKRIFVPKMDYLNHQMTFKEIFNLKDIDVDNKGIYYPTSKGETTNNLDLIVVPGVGFQDDGYRIGYGGGYYDRFLANYQTKTISLLYDFQITSFEPESFDQPVDKLIIYQSALEHHHHHH” as the sequence, how does the “soluble on expression in E. coli” value read?
Answer: Its value is “soluble”.

Question: Which “soluble on expression in E. coli” value does the source give for “MTKRIEIKPATAADQAALAEIYLVDRQQDFPWVTDPQLQDFNEDSRGEFVLVAWIDGQRAGFCSLYRLANFIHLLFVAPDFRHLKVGERLLTEMRQYATEPLTLKCVMANENALRFYAQVGFRIVKADADALPPNYTLRDTHTEQYVALVDVMANERKLN” here?
Answer: Its value is “soluble”.

Question: Which “soluble on expression in E. coli” value does the source give for “MTLAEENLRLFEKKFAILQEISNALVVTDNISAIANLMLDLAVNYTRAEKGSLLLLNERDELFILAGRGIDLQLMRTYRARLGEGIAGIVAKGRVPILVKDIDQDSRFQGMTRDRYKTPSFISCPIVSKDRLLGLLNINDKADGTPFLDDEFSLIKIIANQAAIALENAMLVNQLR” here?
Answer: Its value is “not soluble”.

Question: Which “soluble on expression in E. coli” value does the source give for “MTLCAMYNISMAGSHPTTICVVMDRFLESFSELYDIIDENDTDVMMDFISRFARTDEIMPEDKTVGFVVVNADKKLMSVSFSDIDENMKKVIKATAEKFKNKGFKVETDM” here?
Answer: Its value is “soluble”.

Question: For “MTLEWEEFLDPYIQAVGELKIKLRGIRKQYRKQNKHSPIEFVTGRVKPIESIKEKMARRGITYATLEHDLQDIAGLRVMVQFVDDVKEVVDILHKRQDMRIIQERDYITHRKASGYRSYHVVVEYTVDTINGAKTILAEIQIRTLAMNFWATIEHSLNYKYQGDFPDEIKKRLEITARIAHQLDEEMGEIRDDIQEAQALFDPLSRKLNDGVGNSDDTDEEYR”, which “soluble on expression in E. coli” value is on record?
Answer: Its value is “soluble”.

Question: With “MTLGTALKQARKAQQLNQKQAARGICAQSMLSAIENDRYVPNARLLLALCQRLGVAVSTLSLADDFEISAEQAFNDRVRQMCNAHQYQQLKDWLLQPTTLEHVQTDEQTQAYYYYLGVACWQVDRTSDAAQQNLRLAIGMAAPSSPPTTLTRLALISLAVVKAHHHPQAPVAALVTRALADIDAGAYEENANIVFYLAGLVAYEQHDSQLAVARLTQGLAFATTHDSHYMLANIYQLMAQLAMAAGETATAQVASQRSQVFKDLFKEQINDRL” as the sequence, how does the “soluble on expression in E. coli” value read?
Answer: The value was “not soluble”.

Question: For “MTLKLTYFDIRGLAEPIRLLLNDQEIPFEDNRISREEWAEMKSTMIFAQLPCLHIGTETIVQSAAILRHLGRIYGLNGSTESETSFIDMFSEGLRDLRTKYFTMIKTDYEDGKEAYITETLPGELLRIEKLFCTFNNGENFVSGDKLSYADYALFELLDIHLILTPTALNGTPALKRFHGRFAERPNMRLYLNKRAELNPFVSGNGKQ”, which “soluble on expression in E. coli” value is on record?
Answer: Its value is “not soluble”.

Question: Which “soluble on expression in E. coli” value does the source give for “MTLLRVGGVPEPFNEIFMQAQEGALPSTKLQVEFLGVAGGSGAALEMLAKCELDVAVTLTESAVARTKAAASGLAVHSVYVASPLAWGVAVSSKKTDWTDLNSLDAAVLRGESIRAGFSRRGSGSHLLLSVFASDRGWISTGIQNDILKSFECGSFDGLIQAAVAGDIDMFLWETCFTKECAATRQGLIRLVGEYAPSWPAFVLVCRDDAHVRAAVSELKREIEPLQRKFCTGEGLDILQNKYGFSLESAKLWLSRLQFAEPDEALSAEQWRSVERALELTAGSRSSSR” here?
Answer: The value was “soluble”.

Question: Which “soluble on expression in E. coli” value does the source give for “MTLSIIVAHDKQRVIGYQNQLPWHLPNDLKHIKQLTTGNTLVMARKTFESIGKPLPNRRNVVLTNQASFHHEGVDVINSLDEIKELSGHVFIFGGQTLYEAMIDQVDDMYITVIDGKFQGDTFFPPYTFEDWEVESSVEGQLDEKNTIPHTFLHLVRRKGK” here?
Answer: The value was “soluble”.

Question: With “MTLTKAELADILVDKVSNVTKNDAKEIVELFFEEIRSTLASGEEIKISGFGNFQLRDKPQRPGRNPKTGEEVPITARRVVTFHASQKLKSMVEHYYDKQR” as the sequence, how does the “soluble on expression in E. coli” value read?
Answer: Its value is “not soluble”.

Question: With “MTMEQLQTPPVVVEVCHTLDKKQLNAISKQVYETTLEAIERARRDSEVDSDLIYTRVGVRRFLDNCSEAYLDELIAKGLPTGRRLSDRKTCWSKHQLRSWLLENE” as the sequence, how does the “soluble on expression in E. coli” value read?
Answer: The value was “not soluble”.

Question: With “MTMTLNELLATNPDGTLEDIAGKYNTSLFAVVEALPTAQCTLATGDRFDQVWDTIATWGEVTLISHTADAILEFKSELPTGTHRHGYFNLRGKNGLSGHIRATSCQHIAFIERKFMGMDTASVVFFNANGAAMFKIFLGRDSHRQLLSAQVDAFRALASELQPEQVLEHHHHHH” as the sequence, how does the “soluble on expression in E. coli” value read?
Answer: The value was “soluble”.

Question: For “MTNEEPLPKKVRLSETDFKVMARDELILRWKQYEAYVQALEGKYTDLNSNDVTGLRESEEKLKQQQQESARRENILVMRLATKEQEMQECTTQIQYLKQVQQPSVAQLRSTMVDPAINLFFLKMKGELEQTKDKLEQAQNELSAWKFTPDR”, which “soluble on expression in E. coli” value is on record?
Answer: Its value is “soluble”.
